Experiment in all cases: no ligand; PBM; 270 nM : 90 nM RXRa; PBS pH 7.4, 2% milk, 0.02% Triton X-100, 1 mM DTT, BSA, 0.4 mg/ml salmon testes DNA
Settings in all cases: tags: His kept;His cleaved; copies: 1;1; label: surface-attached array probe

The target in one series is LXRa:RXRa (Homo sapiens, UniProt Q13133;P19793 full;full). Put shortly: (§1)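 Ligand-free nuclear receptor dimers were bound for 1 h to custom Agilent 4×180K protein-binding microarrays. Detection used antibodies against each partner (one per run). Binding z-scores rest on regression-normalized fluorescence, with random background probes as the reference.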
Sequence of LXRa:RXRa (Q13133 whole entry, chain 1 of 2): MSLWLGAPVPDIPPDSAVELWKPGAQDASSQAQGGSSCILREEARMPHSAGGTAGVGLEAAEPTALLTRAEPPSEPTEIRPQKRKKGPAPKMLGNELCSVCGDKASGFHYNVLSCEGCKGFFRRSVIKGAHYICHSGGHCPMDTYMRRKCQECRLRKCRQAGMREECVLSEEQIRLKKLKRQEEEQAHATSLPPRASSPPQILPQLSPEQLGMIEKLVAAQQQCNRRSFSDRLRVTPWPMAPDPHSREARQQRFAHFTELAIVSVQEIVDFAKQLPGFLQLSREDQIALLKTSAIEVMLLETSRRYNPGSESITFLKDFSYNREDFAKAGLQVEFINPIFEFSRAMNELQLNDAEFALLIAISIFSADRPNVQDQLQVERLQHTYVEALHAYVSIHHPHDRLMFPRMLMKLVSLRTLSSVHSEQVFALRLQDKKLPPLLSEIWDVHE
Sequence of LXRa:RXRa (P19793 whole entry, chain 2 of 2): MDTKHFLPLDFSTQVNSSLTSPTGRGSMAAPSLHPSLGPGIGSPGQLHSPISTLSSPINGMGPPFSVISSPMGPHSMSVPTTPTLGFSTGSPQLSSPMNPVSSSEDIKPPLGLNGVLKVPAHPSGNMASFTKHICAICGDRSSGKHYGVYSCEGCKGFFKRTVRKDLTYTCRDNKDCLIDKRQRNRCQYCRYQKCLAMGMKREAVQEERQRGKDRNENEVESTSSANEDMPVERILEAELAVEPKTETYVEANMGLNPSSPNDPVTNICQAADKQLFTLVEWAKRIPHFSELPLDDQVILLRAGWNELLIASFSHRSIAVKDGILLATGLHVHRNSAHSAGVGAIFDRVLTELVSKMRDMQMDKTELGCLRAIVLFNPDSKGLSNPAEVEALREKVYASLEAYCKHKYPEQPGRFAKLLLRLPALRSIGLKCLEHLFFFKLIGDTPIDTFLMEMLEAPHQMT
The target in another series is VDR:RXRa (Homo sapiens, UniProt P11473;P19793 full;full). The essentials: as §1
Sequence of VDR:RXRa (P11473 whole entry, chain 1 of 2): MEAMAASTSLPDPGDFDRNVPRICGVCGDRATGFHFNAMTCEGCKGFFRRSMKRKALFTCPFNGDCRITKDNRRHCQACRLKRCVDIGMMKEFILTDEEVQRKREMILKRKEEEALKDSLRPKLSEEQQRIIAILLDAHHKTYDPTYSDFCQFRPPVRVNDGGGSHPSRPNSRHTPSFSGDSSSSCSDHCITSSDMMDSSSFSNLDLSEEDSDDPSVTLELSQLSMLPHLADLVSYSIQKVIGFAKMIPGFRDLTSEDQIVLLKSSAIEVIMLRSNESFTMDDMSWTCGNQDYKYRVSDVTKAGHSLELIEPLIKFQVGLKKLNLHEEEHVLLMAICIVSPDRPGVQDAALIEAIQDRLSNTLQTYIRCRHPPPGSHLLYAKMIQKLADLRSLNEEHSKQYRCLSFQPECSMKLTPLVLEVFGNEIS
Sequence of VDR:RXRa (P19793 whole entry, chain 2 of 2): as the sequence (P19793 whole entry, chain 2 of 2) above
Another series deals with LXRb:RXRa (Homo sapiens, UniProt P55055;P19793 full;full). Put shortly: as §1
Sequence of LXRb:RXRa (P55055 whole entry, chain 1 of 2): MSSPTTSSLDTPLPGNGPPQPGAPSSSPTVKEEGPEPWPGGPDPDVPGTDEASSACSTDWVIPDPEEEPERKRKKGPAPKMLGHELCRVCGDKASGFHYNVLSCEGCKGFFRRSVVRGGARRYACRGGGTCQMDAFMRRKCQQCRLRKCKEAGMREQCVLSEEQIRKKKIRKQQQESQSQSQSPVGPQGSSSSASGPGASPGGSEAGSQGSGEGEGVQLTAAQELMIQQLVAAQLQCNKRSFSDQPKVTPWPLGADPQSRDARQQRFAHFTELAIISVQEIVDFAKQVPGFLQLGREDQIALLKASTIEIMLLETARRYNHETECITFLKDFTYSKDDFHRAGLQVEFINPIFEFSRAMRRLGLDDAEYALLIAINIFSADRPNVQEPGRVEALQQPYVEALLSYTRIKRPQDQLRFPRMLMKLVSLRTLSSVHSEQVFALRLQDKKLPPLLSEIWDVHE
Sequence of LXRb:RXRa (P19793 whole entry, chain 2 of 2): as the sequence (P19793 whole entry, chain 2 of 2) above
For the next series, the target named is FXR:RXRa (Homo sapiens, UniProt Q96RI1;P19793 full;full). Put shortly: as §1
Sequence of FXR:RXRa (Q96RI1 whole entry, chain 1 of 2): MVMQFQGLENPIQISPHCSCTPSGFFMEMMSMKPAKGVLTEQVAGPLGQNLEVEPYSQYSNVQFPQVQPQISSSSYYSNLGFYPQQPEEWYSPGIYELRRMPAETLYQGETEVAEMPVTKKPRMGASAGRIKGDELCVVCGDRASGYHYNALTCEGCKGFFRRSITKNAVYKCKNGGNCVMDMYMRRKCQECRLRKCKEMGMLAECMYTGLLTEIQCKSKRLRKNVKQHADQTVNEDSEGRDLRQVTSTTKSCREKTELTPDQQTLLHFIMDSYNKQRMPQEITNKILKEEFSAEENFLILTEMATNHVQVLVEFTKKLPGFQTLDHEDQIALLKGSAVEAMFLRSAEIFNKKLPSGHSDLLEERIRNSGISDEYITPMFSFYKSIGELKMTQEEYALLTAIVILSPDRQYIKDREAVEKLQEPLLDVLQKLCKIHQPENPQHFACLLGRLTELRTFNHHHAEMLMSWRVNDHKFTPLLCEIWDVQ
Sequence of FXR:RXRa (P19793 whole entry, chain 2 of 2): as the sequence (P19793 whole entry, chain 2 of 2) above
For another series, the target named is RARg:RXRa (Homo sapiens, UniProt P13631;P19793 full;full). The essentials: as §1
Sequence of RARg:RXRa (P13631 whole entry, chain 1 of 2): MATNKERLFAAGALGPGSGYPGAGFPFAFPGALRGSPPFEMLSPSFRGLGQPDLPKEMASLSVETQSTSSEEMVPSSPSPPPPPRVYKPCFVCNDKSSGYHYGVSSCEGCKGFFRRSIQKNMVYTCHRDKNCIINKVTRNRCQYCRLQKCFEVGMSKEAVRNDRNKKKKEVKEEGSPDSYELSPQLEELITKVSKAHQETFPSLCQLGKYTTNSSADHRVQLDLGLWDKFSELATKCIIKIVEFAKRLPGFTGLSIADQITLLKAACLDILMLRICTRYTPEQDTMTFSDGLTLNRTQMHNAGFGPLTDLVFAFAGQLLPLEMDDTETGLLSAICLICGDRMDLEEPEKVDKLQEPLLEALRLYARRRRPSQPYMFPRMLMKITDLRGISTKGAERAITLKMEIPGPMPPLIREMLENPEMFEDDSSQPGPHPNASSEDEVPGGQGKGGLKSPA
Sequence of RARg:RXRa (P19793 whole entry, chain 2 of 2): as the sequence (P19793 whole entry, chain 2 of 2) above

B1: NRC3_wobSeed114_DR4_G9A_o1 (dsDNA)
DNA 1: GCAATACAAGGTCATCGTAGGCCAGAGTACGCACAGGCGATTGACAGCGTAGAATGAAGG
DNA 2: CCTTCATTCTACGCTGTCAATCGCCTGTGCGTACTCTGGCCTACGATGACCTTGTATTGC
On to B1, for which the binding signal in the series with LXRa:RXRa was 7.16 PBM z-score against 500 random probes.

B2: NRC3_wobSeed40_DR1_G5C_o1 (dsDNA)
DNA 1: GCTACCCTAGGTCATGGGCCAGTATACCACGCGAACGCGATTGACAGCGTAGAATGAAGG
DNA 2: CCTTCATTCTACGCTGTCAATCGCGTTCGCGTGGTATACTGGCCCATGACCTAGGGTAGC
As for B2, in the series with LXRa:RXRa, the binding signal was 6.6 PBM z-score against 500 random probes.

B3: NRC3_wobSeed73_DR3_A5C_o1 (dsDNA)
DNA 1: GCCACACTAGGTCACAGAGGTCAAAGTCCGTGCGTAGCGATTGACAGCGTAGAATGAAGG
DNA 2: CCTTCATTCTACGCTGTCAATCGCTACGCACGGACTTTGACCTCTGTGACCTAGTGTGGC
With B3, the binding signal in the series with LXRa:RXRa is 7.06 PBM z-score against 500 random probes.

B4: NRC3_wobSeed117_DR4_A18G_o1 (dsDNA)
DNA 1: GCCGTCAAAGTTCAACTGAGGTAACGTAAAGCACGCGCGATTGACAGCGTAGAATGAAGG
DNA 2: CCTTCATTCTACGCTGTCAATCGCGCGTGCTTTACGTTACCTCAGTTGAACTTTGACGGC
As to B4, in the series with LXRa:RXRa, the binding signal was 6.87 PBM z-score against 500 random probes.

B5: NRC3_wobSeed49_DR2_G11T_o1 (dsDNA)
DNA 1: GCCAAACTAGTTCAAGAGGTCAAAGTCCGCTTCCCGGCGATTGACAGCGTAGAATGAAGG
DNA 2: CCTTCATTCTACGCTGTCAATCGCCGGGAAGCGGACTTTGACCTCTTGAACTAGTTTGGC
B5: the binding signal in the series with LXRa:RXRa is 6.74 PBM z-score against 500 random probes.

B6: NRC3_wobSeed105_DR4_A13T_o1 (dsDNA)
DNA 1: GCATCTCTAGGTTAAGATAGTTCAGTGAATGCAAATGCGATTGACAGCGTAGAATGAAGG
DNA 2: CCTTCATTCTACGCTGTCAATCGCATTTGCATTCACTGAACTATCTTAACCTAGAGATGC
Take B6: the binding signal with LXRa:RXRa is 6.81 PBM z-score against 500 random probes.

B7: NRC3_wobSeed101_DR4_G27T_o1 (dsDNA)
DNA 1: GCCCTTACGGGTCACTCCAGGTTATATCATCGGAGTGCGATTGACAGCGTAGAATGAAGG
DNA 2: CCTTCATTCTACGCTGTCAATCGCACTCCGATGATATAACCTGGAGTGACCCGTAAGGGC
On to B7, for which, in the series with LXRa:RXRa, the binding signal is 8.05 PBM z-score against 500 random probes.

B8: NRC3_wobSeed42_DR1_G9A_o1 (dsDNA)
DNA 1: GCTATACAAGGTCAAAGGCCAGAGTACGAATGTCGAGCGATTGACAGCGTAGAATGAAGG
DNA 2: CCTTCATTCTACGCTGTCAATCGCTCGACATTCGTACTCTGGCCTTTGACCTTGTATAGC
In the case of B8, the binding signal in the series with LXRa:RXRa was 7.02 PBM z-score against 500 random probes.

B9: NRC3_wobSeed113_DR4_G19A_o1 (dsDNA)
DNA 1: GCATATGTAGGTTAGCTGAGGTCATTCAGACTAGGCGCGATTGACAGCGTAGAATGAAGG
DNA 2: CCTTCATTCTACGCTGTCAATCGCGCCTAGTCTGAATGACCTCAGCTAACCTACATATGC
With B9, in the series with LXRa:RXRa, the binding signal is 6.64 PBM z-score against 500 random probes.

B10: NRC3_wobSeed109_DR4_A19G_o1 (dsDNA)
DNA 1: GCCGTCCAAGGTCATAGGGGGTCAGTGAAGACAGATGCGATTGACAGCGTAGAATGAAGG
DNA 2: CCTTCATTCTACGCTGTCAATCGCATCTGTCTTCACTGACCCCCTATGACCTTGGACGGC
With B10, the binding signal in the series with VDR:RXRa is 7.46 PBM z-score against 500 random probes; in the series with LXRb:RXRa, 7.12 PBM z-score against 500 random probes; in the series with FXR:RXRa, 8.21 PBM z-score against 500 random probes; with RARg:RXRa, 7.6 PBM z-score against 500 random probes.

B11: NRC3_wobSeed104_DR4_A11G_o1 (dsDNA)
DNA 1: GCTCTTGTAGGTCAATAGAGGTTAAGAAAGTGCGCTGCGATTGACAGCGTAGAATGAAGG
DNA 2: CCTTCATTCTACGCTGTCAATCGCAGCGCACTTTCTTAACCTCTATTGACCTACAAGAGC
On to B11, for which, in the series with LXRa:RXRa, the binding signal is 7.01 PBM z-score against 500 random probes.

B12: NRC3_wobSeed93_DR3_G25A_o1 (dsDNA)
DNA 1: GCAGTCAAAGTTCATCTAGGTAACATAAGATATGCTGCGATTGACAGCGTAGAATGAAGG
DNA 2: CCTTCATTCTACGCTGTCAATCGCAGCATATCTTATGTTACCTAGATGAACTTTGACTGC
For the molecule B12, the binding signal in the series with LXRa:RXRa was 6.61 PBM z-score against 500 random probes.

B13: NRC3_wobSeed76_DR3_o1 (dsDNA)
DNA 1: GCCCTACTGGGCCAAAAAGGTCATTGATGCCGATAAGCGATTGACAGCGTAGAATGAAGG
DNA 2: CCTTCATTCTACGCTGTCAATCGCTTATCGGCATCAATGACCTTTTTGGCCCAGTAGGGC
B13: the binding signal with LXRa:RXRa was 4.25 PBM z-score against 500 random probes.

B14: NRC3_wobSeed97_DR4_G16A_o1 (dsDNA)
DNA 1: GCCAAACTAGGTCACAAAAGGTCAAAGTCGAATGACGCGATTGACAGCGTAGAATGAAGG
DNA 2: CCTTCATTCTACGCTGTCAATCGCGTCATTCGACTTTGACCTTTTGTGACCTAGTTTGGC
In the case of B14, the binding signal with LXRa:RXRa was 8.65 PBM z-score against 500 random probes.

B15: NRC3_wobSeed64_DR2_G5C_o1 (dsDNA)
DNA 1: GCTACCCTAGGTCATTGGGCCAGTATAGTACGCATCGCGATTGACAGCGTAGAATGAAGG
DNA 2: CCTTCATTCTACGCTGTCAATCGCGATGCGTACTATACTGGCCCAATGACCTAGGGTAGC
As for B15, the binding signal with LXRa:RXRa was 6.89 PBM z-score against 500 random probes.

B16: NRC3_random_hg19_332_o1 (dsDNA)
DNA 1: GCTTGTCCTCAGCCTCCTGAGCAGCTGGGACTATAGGCGATTGACAGCGTAGAATGAAGG
DNA 2: CCTTCATTCTACGCTGTCAATCGCCTATAGTCCCAGCTGCTCAGGAGGCTGAGGACAAGC
As to B16, the binding signal in the series with VDR:RXRa was -1.03 PBM z-score against 500 random probes; with LXRb:RXRa it was -1.23 PBM z-score against 500 random probes; with FXR:RXRa, -0.13 PBM z-score against 500 random probes.

B17: NRC3_wobSeed100_DR4_G16T_o1 (dsDNA)
DNA 1: GCCCTACTGGGCCACTAAAGGTCATTGATTCAGTGAGCGATTGACAGCGTAGAATGAAGG
DNA 2: CCTTCATTCTACGCTGTCAATCGCTCACTGAATCAATGACCTTTAGTGGCCCAGTAGGGC
Regarding B17, the binding signal with LXRa:RXRa was 7.03 PBM z-score against 500 random probes.

B18: NRC3_wobSeed100_DR4_T8G_o1 (dsDNA)
DNA 1: GCCCTACGGGGCCACGAAAGGTCATTGATTCAGTGAGCGATTGACAGCGTAGAATGAAGG
DNA 2: CCTTCATTCTACGCTGTCAATCGCTCACTGAATCAATGACCTTTCGTGGCCCCGTAGGGC
For the molecule B18, the binding signal with LXRa:RXRa is 6.67 PBM z-score against 500 random probes.

B19: NRC3_wobSeed116_DR4_C16T_o1 (dsDNA)
DNA 1: GCAGAATGAGGTTACTAAAGATCAGGGAAACGCTTGGCGATTGACAGCGTAGAATGAAGG
DNA 2: CCTTCATTCTACGCTGTCAATCGCCAAGCGTTTCCCTGATCTTTAGTAACCTCATTCTGC
For B19, the binding signal with LXRa:RXRa was 8.1 PBM z-score against 500 random probes.

B20: NRC3_wobSeed116_DR4_A9G_o1 (dsDNA)
DNA 1: GCAGAATGGGGTTACCAAAGATCAGGGAAACGCTTGGCGATTGACAGCGTAGAATGAAGG
DNA 2: CCTTCATTCTACGCTGTCAATCGCCAAGCGTTTCCCTGATCTTTGGTAACCCCATTCTGC
On to B20, for which, in the series with LXRa:RXRa, the binding signal is 7.02 PBM z-score against 500 random probes.

B21: NRC3_wobSeed45_DR1_G4A_o1 (dsDNA)
DNA 1: GCTATCAAAGTTCAAAGGTAACGTAAGTATCCACACGCGATTGACAGCGTAGAATGAAGG
DNA 2: CCTTCATTCTACGCTGTCAATCGCGTGTGGATACTTACGTTACCTTTGAACTTTGATAGC
As for B21, the binding signal in the series with LXRa:RXRa is 7.29 PBM z-score against 500 random probes.

B22: NRC3_wobSeed136_DR5_G5C_o1 (dsDNA)
DNA 1: GCTACCCTAGGTCATTCAGGGGCCAGTATAGAAAGCGCGATTGACAGCGTAGAATGAAGG
DNA 2: CCTTCATTCTACGCTGTCAATCGCGCTTTCTATACTGGCCCCTGAATGACCTAGGGTAGC
On to B22, for which, in the series with LXRa:RXRa, the binding signal was 6.72 PBM z-score against 500 random probes.

B23: NRC3_wobSeed136_DR5_G26C_o1 (dsDNA)
DNA 1: GCTAGCCTAGGTCATTCAGGGGCCACTATAGAAAGCGCGATTGACAGCGTAGAATGAAGG
DNA 2: CCTTCATTCTACGCTGTCAATCGCGCTTTCTATAGTGGCCCCTGAATGACCTAGGCTAGC
Turning to B23, the binding signal with LXRa:RXRa was 4.28 PBM z-score against 500 random probes.

Source of the values: PMC6555819, “Comprehensive study of nuclear receptor DNA binding provides a revised framework for understanding receptor specificity”.
